In experiment [1] the target is T1, hHER3-his (human, UniProt P21860 20-643).
T1 construct: Bought reagent; also called Her3-his (cat10201-H08H, SinoBiological); not shown: his tag
Description: SPR (BIAcore 8K), mAb captured by anti-human Fc, Her3-his as analyte, 1:1 Langmuir fit, 25 C. As to the method: Binding kinetics of the mAbs to the target was determined by SPR on a BIAcore 8K (GE Healthcare). The running buffer, 10 mM HEPES, 150 mM NaCl, 0.05% v/v Surfactant P20, 3 mM EDTA, pH 7.4 (HBS-EP+, GE Healthcare) was used for immobilization and reagent dilutions. All binding kinetics were measured at 25° C. For each injection cycle, mAbs were first captured in different flow cells with an anti-human Fc antibody (Human Antibody Capture Kit, GE Healthcare) immobilized to the sensor chip (Series S CM5, GE Healthcare). Reference flow cell with no captured mAb was also used. Serial dilutions of Her3-his(cat10201-H08H, SinoBiological), and buffer blanks were injected in multiple cycles over the captured mAbs and reference surfaces for association followed by dissociation. The surfaces were regenerated with an injection of 3 M MgCl2 after each cycle. Double-referenced titration data was globally fit to a 1:1 Langmuir binding model to determine the association rate constant, ka (M−1 s−1), and the dissociation rate constant, kd (s−1), using the BIAcore Insight Evaluation Software version 2.0 (GE Healthcare). The equilibrium dissociation constant was calculated as KD(M)=kd/ka.

The target of experiment [2] is T2, human HER3 (native, on A375 cells) (human, UniProt P21860 20-1342).
T2 construct: whole, on cells; also called native Her3; human native Her3
As to the kind of experiment: flow cytometry (FACS) on A375 cells, anti-human IgG Alexa Fluor 647 detection, 4-parameter fit. The procedure:
Cell fluorescence was quantified using a flow cytometer (Guava easyCyte 8HT, Merck-Millipore, USA). EC50 values for dose-dependent binding to human native Her3 were determined by fitting the dose-response data to the four-parameter logistic model with GraphPad Prism.
For orientation: Flow cytometry measures light scatter and fluorescence of single cells or particles in a stream.

B1: mAb10 (antibody, V domains shown)
VH: EVQLLESGGGLVQPGGSLRLSCAVSGGSFSGYYWSWIRQAPGKGLEWIGEINHSGSTNYNPSLKSRFTISVDNSKNTFYLQMNSLRAEDTAVYYCARDKWTWYFDLWGRGTLVTVSS
VL: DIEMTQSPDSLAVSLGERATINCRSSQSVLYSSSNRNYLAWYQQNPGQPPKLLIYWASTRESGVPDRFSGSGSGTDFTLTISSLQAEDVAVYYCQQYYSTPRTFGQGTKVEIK
notes: Produced from heavy chain and kappa chain plasmids in CHO cells
In experiment [1], B1 yielded a dissociation constant Kd of 2.52 nM. In experiment [2], this molecule returned an EC50 of 0.83 nM.

B2: Patritumab (antibody, V domains shown)
VH: QVQLQQWGAGLLKPSETLSLTCAVYGGSFSGYYWSWIRQPPGKGLEWIGEINHSGSTNYNPSLKSRVTISVETSKNQFSLKLSSVTAADTAVYYCARDKWTWYFDLWGRGTLVTVSS
VL: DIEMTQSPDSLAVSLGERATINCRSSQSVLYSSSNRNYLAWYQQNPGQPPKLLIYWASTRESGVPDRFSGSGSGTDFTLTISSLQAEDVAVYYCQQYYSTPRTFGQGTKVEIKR
In experiment [1], B2 gave a Kd of 1.51 nM. This molecule gave an EC50 in experiment [2] of 0.59 nM.

A word on the Kd: it is the free concentration of one partner at which half of the binding sites on the other are occupied at equilibrium, for simple one-to-one binding. Read a low Kd as higher affinity. The EC50 is the concentration giving half of the maximal effect. A low value points to a more potent agent.

The values above are taken from patent US20250295798A1 (BEIGENE SWITZERLAND, published 2025).
